The values that follow come from US20220073618A1 (NANJING GENSCRIPT BIOTECH, published 2022).

The Kd is the equilibrium constant for the complex coming apart. In general, koff refers to a measure of how fast the partners let go of each other. Broadly, the kon is the rate constant with which the complex forms.

B1: AH01964 (prokaryotically expressed antibody product) (Fab, V domains shown)
VH: QVQLQESGPGLVKPSQTLSLTCTVSGYSITSGYTWHWIRQHPGKGLEWIGYIHYSGSTKYNPSLKSRVTISRDTSKNQFSLKLSSVTAADTAVYYCARNSLFASWGQGTLVTVSS
VL: DIVMTQSPDSLAVSLGERATINCRASESVDTYGDSFMHWYQQKPGQPPKLLIYRASNLESGVPDRFSGSGSGTDFTLTISSLQAEDVAVYYCQQSNEAPYTFGGGTKL
B2: AH01950 (prokaryotically expressed antibody product) (Fab, V domains shown)
VH: QVQLQESGPGLVKPSQTLSLTCTVSGYSITSGYTWHWIRQHPGKGLEWIGYIHYSGSTKYNPSLKSRVTISRDTSKNQFSLKLSSVTAADTAVYYCARNSLFASWGQGTLVTVSS
VL: DIVLTQSPDSLAVSLGERATINCRASESVDTYGDSFMHWFQQKPGQPPKLLIYRASNLESGVPDRFSGSGSGTDFTLTISSLQAEDVAVYYCQQSNEAPYTFGGGTKLEIK
B3: AH01946 (prokaryotically expressed antibody product) (Fab, V domains shown)
VH: QVQLQESGPGLVKPSQTLSLTCTVSGYSITSGYTWHWIRQHPGKGLEWIGYIHYSGSTKYNPSLKSRVTISRDTSKNQFSLKLSSMTAADTAVYYCARNSLFASWGQGTLVTVSS
VL: DIVLTQSPDSLAVSLGERATINCRASESVDTYGDSFMHWFQQKPGQPPKLLIYRASNLESGVPDRFSGSGSGTDFTLTISSVQAEDVAVYYCQQSNEAPYTFGGGTKLEIK
B4: AH01963 (prokaryotically expressed antibody product) (Fab, V domains shown)
VH: QVQLQESGPGLVKPSQTLSLTCTVSGYSITSGYTWHWIRQHPGKGLEWIGYIHYSGSTKYNPSLKSRVTISRDTSKNQFSLKLSSVTAADTAVYYCARNSLFASWGQGTLVTVSS
VL: DIVLTQSPDSLAVSLGERATINCRASESVDTYGDSFMHWYQQKPGQPPKLLIYRASNLESGVPDRFSGSGSGTDFTLTISSVQAEDVAVYYCQQSNEAPYTFGGGTKLEIK
B5: AH02030 (prokaryotically expressed antibody product) (Fab, V domains shown)
VH: QVQLQESGPGLVKPSQTLSLTCTVTGYSITSGYTWHWIRQHPGKGLEWIGYIHYSGSTKYNPSLKSRFTITRDTSKNQFSLKLSSVTAADTAVYYCARNSLFASWGQGTLVTVSS
VL: DIVLTQSPDSLAVSLGERATINCRASESVDTYGDSFMHWYQQKPGQPPKLLIYRASNLESGVPDRFSGSGSRTDFTLTISSLQAEDVAVYYCQQSNEAPYTFGGGTKLEIK
B6: AH01947 (prokaryotically expressed antibody product) (Fab, V domains shown)
VH: QVQLQESGPGLVKPSQTLSLTCTVSGYSITSGYTWHWIRQHPGKGLEWIGYIHYSGSTKYNPSLKSRVTISVDTSKNQFSLKLSSVTAADTAVYYCARNSLFASWGQGTLVTVSS
VL: DIVLTQSPDSLAVSLGERATINCRASESVDTYGDSFMHWFQQKPGQPPKLLIYRASNLESGVPDRFSGSGSGTDFTLTISSLQAEDVAVYYCQQSNEAPYTFGGGTKLEIK
B7: AH02033 (prokaryotically expressed antibody product) (Fab, V domains shown)
VH: QVQLQESGPGLVKPSQTLSLTCTVTGYSITSGYTWHWIRQHPGKGLEWMGYIHYSGSTKYNPSLKSRFTISRDTSKNQFSLKLSSVTAADTAVYYCARNSLFASWGQGTLVTVSS
VL: DIVLTQSPDSLAVSLGERATINCRASESVDTYGDSFMHWFQQKPGQPPKLLIYRASNLESGIPDRFSGSGSGTDFTLTISSLQAEDVAVYYCQQSNEAPYTFGGGTKLEIK
B8: AH02029 (prokaryotically expressed antibody product) (Fab, V domains shown)
VH: QVQLQESGPGLVKPSQTLSLTCTVTGYSITSGYTWHWIRQHPGKGLEWIGYIHYSGSTKYNPSLKSRVSISRDTSKNQFSLKLSSVTAADTAVYYCARNSLFASWGQGTLVTVSS
VL: DIVLTQSPDSLAVSLGERATINCRASESVDTYGDSFMHWYQQKPGQPPKLLIYRASNLESGVPDRFSGSGSGTDFTLTISSLQAEDVAVYYCQQSNEAPYTFGGGTKLEIK
B9: AH01947 (antibody, human IgG1, V domains shown)
VH: QVQLQESGPGLVKPSQTLSLTCTVSGYSITSGYTWHWIRQHPGKGLEWIGYIHYSGSTKYNPSLKSRVTISVDTSKNQFSLKLSSVTAADTAVYYCARNSLFASWGQGTLVTVSS
VL: DIVLTQSPDSLAVSLGERATINCRASESVDTYGDSFMHWFQQKPGQPPKLLIYRASNLESGVPDRFSGSGSGTDFTLTISSLQAEDVAVYYCQQSNEAPYTFGGGTKLEIK
notes: also called mPD-L1Ab-CBM clone AH01947
B10: AH01964 (antibody, human IgG1, V domains shown)
VH: QVQLQESGPGLVKPSQTLSLTCTVSGYSITSGYTWHWIRQHPGKGLEWIGYIHYSGSTKYNPSLKSRVTISRDTSKNQFSLKLSSVTAADTAVYYCARNSLFASWGQGTLVTVSS
VL: DIVMTQSPDSLAVSLGERATINCRASESVDTYGDSFMHWYQQKPGQPPKLLIYRASNLESGVPDRFSGSGSGTDFTLTISSLQAEDVAVYYCQQSNEAPYTFGGGTKL
notes: also called mPD-L1Ab-CBM clone AH01964
B11: AH02030 (antibody, human IgG1, V domains shown)
VH: QVQLQESGPGLVKPSQTLSLTCTVTGYSITSGYTWHWIRQHPGKGLEWIGYIHYSGSTKYNPSLKSRFTITRDTSKNQFSLKLSSVTAADTAVYYCARNSLFASWGQGTLVTVSS
VL: DIVLTQSPDSLAVSLGERATINCRASESVDTYGDSFMHWYQQKPGQPPKLLIYRASNLESGVPDRFSGSGSRTDFTLTISSLQAEDVAVYYCQQSNEAPYTFGGGTKLEIK
notes: also called mPD-L1Ab-5BM clone AH02030
B12: AH02033 (antibody, human IgG1, V domains shown)
VH: QVQLQESGPGLVKPSQTLSLTCTVTGYSITSGYTWHWIRQHPGKGLEWMGYIHYSGSTKYNPSLKSRFTISRDTSKNQFSLKLSSVTAADTAVYYCARNSLFASWGQGTLVTVSS
VL: DIVLTQSPDSLAVSLGERATINCRASESVDTYGDSFMHWFQQKPGQPPKLLIYRASNLESGIPDRFSGSGSGTDFTLTISSLQAEDVAVYYCQQSNEAPYTFGGGTKLEIK
notes: also called mPD-L1Ab-5BM clone AH02033
B13: Chimeric antibody (as ranked in Table 2) (Fab, V domains shown)
VH: DVQLQESGPDLVKPSQSLSLTCTVTGYSITSGYTWHWIRQFPGNKLEWMGYIHYSGSTKYNPSLKSRFSITRDTSKNQFFLQLNSMTAEDTATYYCARNSLFASWGHGTLVTVSA
VL: DIVLTQSPASLAVSLGQRATISCRASESVDTYGDSFMHWFQQKPGQPPKLLIYRASNLESGIPARFSGSGSRTDFTLTINPVEADDVATYYCQQSNEAPYTFGGGTKLEIK

T1 sequence (Q9NZQ7 19-238 limits assumed): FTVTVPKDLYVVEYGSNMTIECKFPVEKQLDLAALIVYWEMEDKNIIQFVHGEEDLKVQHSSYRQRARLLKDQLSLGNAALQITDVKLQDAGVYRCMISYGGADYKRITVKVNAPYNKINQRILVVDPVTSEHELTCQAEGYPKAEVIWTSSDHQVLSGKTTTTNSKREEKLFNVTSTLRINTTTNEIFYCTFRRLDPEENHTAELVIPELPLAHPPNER
T2 sequence (Q9NZQ7 19-238 limits assumed): as above

One test has as its target T1, PD-L1/Fc (UniProt Q9NZQ7 19-238, limits assumed).
T1 construct: not shown: Fc part
As to the kind of experiment: SPR (Biacore 8K), prokaryotically expressed antibody as ligand, PD-L1/Fc as analyte, 1:1 binding model. For orientation: Surface plasmon resonance follows binding to a sensor surface in real time, without labels.
B1: binding was characterised by a dissociation constant (Kd) of 46.8 pM, the koff was determined as 2.48e-05 s⁻¹ and the kon was determined as 530000 M⁻¹ s⁻¹.

B2 had a dissociation constant (Kd) of 36.7 pM, a koff of 1.9e-05 s⁻¹ and an association rate constant (kon) of 518000 M⁻¹ s⁻¹.

As to B3, the Kd came to 9.4 pM, the dissociation rate constant (koff) was 4.72e-06 s⁻¹ and the on-rate (kon) was determined as 502000 M⁻¹ s⁻¹.

The molecule B4 returned a dissociation constant (Kd) of 34.4 pM, a koff of 1.63e-05 s⁻¹ and a kon of 474000 M⁻¹ s⁻¹.

With B5, binding was characterised by a dissociation constant (Kd) of 43.9 pM, the off-rate constant (koff) stood at 1.58e-05 s⁻¹ and the association rate constant (kon) came out at 359000 M⁻¹ s⁻¹.

B6: the Kd turned out to be 82.2 pM, the koff came to 4.38e-05 s⁻¹ and the kon was found to be 533000 M⁻¹ s⁻¹.

Take B7: the Kd was 0.0676 pM, the koff came out at 2.71e-08 s⁻¹ and the kon was 401000 M⁻¹ s⁻¹.

With B8, the Kd came to 56.8 pM, the koff turned out to be 1.93e-05 s⁻¹ and the kon was 339000 M⁻¹ s⁻¹.

Another test addresses T2, PD-L1-HIS recombinant protein (human, UniProt Q9NZQ7 19-238, limits assumed).
T2 construct: not shown: His tag
Kind of test: SPR (Biacore 8K), antibody captured on chip, PD-L1-HIS analyte 2.5-80 nM, 1:1 binding model. As for the experimental part: The chip surface was equilibrated with HBS-EP buffer at a flow rate of 10 μl/min for 5 min, and then a 1:1 mixture of “NHS+EDC” was injected at a flow rate of 10 μl/min for 420 sec to activate the chip. The capture antibody (goat anti-murine IgG) diluted in 10 mM sodium acetate buffer was injected for about 420 sec at a flow rate of 10 μl/min for coupling, and finally ethanolamine was injected for 420 sec at a flow rate of 10 μl/min to block the surface.
Three pre-cycles were performed with the HBS-EP buffer as a sample to balance the chip to stabilize the baseline. The antibody diluted in HBS-EP buffer was injected for 30 sec at a flow rate of 10 μl/min (where the antibody-antigen binding signal was controlled to about 100 RU by adjusting the capture time between 0-5 min), and then the chip was equilibrated with the buffer for 1 min. The low-concentration antigen 2.5 nM PD-L1-HIS was injected at a flow rate of 30 μl/min for 240/300 seconds, to allow the antigen to bind to the antibody, and then the buffer was injected at a flow rate of 30 μl/min for 720/600 seconds for dissociation. 50 mM HCl were injected three times each for 15 s at a flow rate of 100 μl/min for regeneration, to complete one cycle. The antigen concentration was changed (such as 5 nM PD-L1-HIS) to carry out the cycle for measurement at a next gradient concentration until all gradient concentrations (2.5 nM, 5 nM, 10 nM, 20 nM, 40 nM, 80 nM PD-L1-HIS) and the replicate (such as 10 nM PD-L1-HIS) were tested.
The experimental data was double subtracted (minus the background values of the control channel and zero concentration), and fitted to the “1:1 binding” model in the Biacore 8K evaluation software. Biacore 8K was used to determine the affinity of the antibody to the PD-L1-HIS recombinant protein.
As to B9, the Kd amounted to 3110 pM, the koff was found to be 0.000714 s⁻¹ and the kon was determined as 230000 M⁻¹ s⁻¹.

Regarding B10, the dissociation constant (Kd) came out at 1760 pM, the koff amounted to 0.00037 s⁻¹ and the on-rate (kon) turned out to be 210000 M⁻¹ s⁻¹.

As for B11, the Kd was found to be 1170 pM, the koff came out at 0.000216 s⁻¹ and the kon was 185000 M⁻¹ s⁻¹.

For the molecule B12, the equilibrium dissociation constant (Kd) worked out at 903 pM, the koff is 0.000166 s⁻¹ and the association rate constant (kon) came out at 184000 M⁻¹ s⁻¹.

The next test deals with T1, PD-L1/Fc. Kind of test: SPR (Biacore 8K), antibody as ligand, PD-L1/Fc as analyte, 1:1 binding model.
B13: the dissociation constant (Kd) worked out at 58 pM, the koff came out at 2.03e-05 s⁻¹ and the kon amounted to 349000 M⁻¹ s⁻¹.
